Experiment [1] deals with T1, rHuman EGF R/Fc Chimera, CF (R&D Systems Cat#344-ER) (human, UniProt P00533 25-645).
T1 construct: Bought protein; also called epidermal growth factor receptor; not shown: Fc of the bought chimera
Nature of the experiment: ECL (MSD multi-spot) titration, Fab at 0.25 uM; blank spot 6344.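 Note: blank spot per well as comparator with Hit at signal to blank ratio of 4 or more.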

Experiment [2] concerns the target T2, rHuman IGF-1 sR, CF (R&D Systems Cat#391-GR) (human, UniProt P08069 31-932).
T2 construct: Bought soluble receptor; also called insulin-like growth factor-1 soluble receptor; IGF-R1
The experiment is described as above.

Experiment [3] has as its target T3, rHuman P-Cadherin/Fc Chimera, CF (R&D Systems Cat#861-PC) (human, UniProt P22223 108-654).
T3 construct: Bought protein; not shown: Fc of the bought chimera
The description is as above.

For experiment [4], the target named is T4, rHuman Erythropoietin R/Fc Chimera, CF (R&D Systems Cat#963-ER) (human, UniProt P19235 25-250).
T4 construct: Bought protein; also called EPO R/Fc; EPOR; not shown: Fc of the bought chimera
T4 sequence: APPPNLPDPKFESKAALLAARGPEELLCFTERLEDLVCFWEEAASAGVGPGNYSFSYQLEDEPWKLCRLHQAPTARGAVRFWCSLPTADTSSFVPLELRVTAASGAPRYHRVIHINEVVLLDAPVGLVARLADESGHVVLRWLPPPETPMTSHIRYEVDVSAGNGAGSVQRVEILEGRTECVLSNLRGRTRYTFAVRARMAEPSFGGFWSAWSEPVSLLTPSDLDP
The experiment is described as above.

For experiment [5], the target named is T5, Recombinant Human DLL4 (R&D Systems Cat#1506-D4/CF) (human, UniProt Q9NR61 27-524).
T5 construct: Bought protein; also called delta-like protein 4
The description is as above.

The target of experiment [6] is T1, rHuman EGF R/Fc Chimera, CF (R&D …). Nature of the experiment: ECL (MSD multi-spot) titration, Fab at 0.00391 uM; blank spot 576.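 Note: blank spot per well as comparator with Hit at signal to blank ratio of 4 or more.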
Experiment [7] addresses T2, rHuman IGF-1 sR, CF (R&D Systems …). The experiment is described as above.
The target of experiment [8] is T3, rHuman P-Cadherin/Fc Chimera, CF (R&D …). Described as above.
The target in experiment [9] is T4, rHuman Erythropoietin R/Fc Chimera, CF …. Described as above.
Experiment [10] has as its target T5, Recombinant Human DLL4 (R&D Systems …). The description is as above.
The target in experiment [11] is T1, rHuman EGF R/Fc Chimera, CF (R&D …). Nature of the experiment: ECL (MSD multi-spot) titration, Fab at 0.01563 uM; blank spot 906.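 Note: blank spot per well as comparator with Hit at signal to blank ratio of 4 or more.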
For experiment [12], the target named is T2, rHuman IGF-1 sR, CF (R&D Systems …). The description is as above.
Experiment [13] has as its target T3, rHuman P-Cadherin/Fc Chimera, CF (R&D …). Described as above.
Experiment [14] addresses T4, rHuman Erythropoietin R/Fc Chimera, CF …. Described as above.
Experiment [15] addresses T5, Recombinant Human DLL4 (R&D Systems …). The experiment is described as above.
Experiment [16] has as its target T1, rHuman EGF R/Fc Chimera, CF (R&D …). Nature of the experiment: ECL (MSD multi-spot) titration, Fab at 0.0625 uM; blank spot 1738.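 Note: blank spot per well as comparator with Hit at signal to blank ratio of 4 or more.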
The target of experiment [17] is T2, rHuman IGF-1 sR, CF (R&D Systems …). Described as above.
The target of experiment [18] is T3, rHuman P-Cadherin/Fc Chimera, CF (R&D …). Described as above.
Experiment [19] deals with T4, rHuman Erythropoietin R/Fc Chimera, CF …. Described as above.
In experiment [20] the target is T5, Recombinant Human DLL4 (R&D Systems …). The description is as above.
Experiment [21] has as its target T6, Recombinant Human DLL4 (R&D Systems, Cat#1506-D4/CF) (human, UniProt Q9NR61 27-529).
T6 construct: Bought protein; also called rHuman DLL4; delta-like protein 4
Nature of the experiment: ECL (MSD) Fab titration; binding affinity estimated from the 50% binding signal.

Some results are limits rather than exact numbers.

B1: Fab VH1-46_IGHD2-15*01_IGHJ2*01 & L2_IGKJ1*01 (Fab, V domains shown)
VH: QVQLVQSGAEVKKPGASVKVSCKASGYTFTSYYMHWVRQAPGQGLEWMGIINPSGGSTSYAQKFQGRVTMTRDTSTSTVYMELSSLRSEDTAVYYCAREGYCSGGSCYSYWYFDLWGRGTLVTVSS
VL: not shown
notes: also called Fab No. 6
As to B1, the ECL signal is 117000 in experiment [1]; 11000 in experiment [2]; 25500 in experiment [3]; 49200 in experiment [4]; 27700 in experiment [5]; 35900 in experiment [6]. The ECL signal in experiment [7] was found to be 822; in experiment [8], 1960; in [9] it was 5020; in experiment [10], 1550; in experiment [11] it was 70800; in experiment [12] it was 1740. For the same molecule, the ECL signal in [13] turned out to be 4940; in experiment [14] it was 11300; in experiment [15], 4020; in experiment [16] it was 94800; in experiment [17], 3150; in [18], 7740. The ECL signal worked out at 21100 in [19] and 8050 in [20].

B2: Fab VH1-46_IGHD6-6*01_IGHJ1*01 & L6_IGKJ1*01 (Fab, V domains shown)
VH: QVQLVQSGAEVKKPGASVKVSCKASGYTFTSYYMHWVRQAPGQGLEWMGIINPSGGSTSYAQKFQGRVTMTRDTSTSTVYMELSSLRSEDTAVYYCAREEYSSSSAEYFQHWGQGTLVTVSS
VL: not shown
notes: Fab from E. coli; VH joined to CH1 with Flag and His tags (Plasmid A), VL to kappa CL (Plasmid C)
For the molecule B2, the Kd in experiment [21] was ≤ 10 nM.

The term Kd denotes the free concentration of one partner at which half of the binding sites on the other are occupied at equilibrium, for simple one-to-one binding.

The values above are taken from US20120058906A1 (published 2012).
